In publication PMC4159622:

Key:
FBXO11 [1] = target: FBXO11 (UniProt Q86XK2); experiment: co-IP of alanine scanning mutants; conditions: reference: wild type; sites S11
FBXO11 [2] = target: FBXO11 (UniProt Q86XK2); experiment: co-IP with anti-HA; conditions: reference: wild type; sites S11

SNAIL (from UniProt O95863) S11A
binding against the reference (FBXO11 [1]): lost

SNAIL (from UniProt O95863) S11V
binding against the reference (FBXO11 [2]): lost
